Source: article PMC3627602
Values belong to the binder of their own block, whether it stands above or below them.

Target: Q338H MBP–MUTYH (human)
Test: pull-down

percent reduction of HUS1 associated, against wild-type MUTYH: 80%
percent reduction of RAD9 associated, against wild-type MUTYH: > 50%
B1: RAD9:RAD1:HUS1 (9–1–1) complex, endogenous in HeLa nuclear extract (complex)
chain 1: MKCLVTGGNVKVLGKAVHSLSRIGDELYLEPLEDGLSLRTVNSSRSAYACFLFAPLFFQQYQAATPGQDLLRCKILMKSFLSVFRSLAMLEKTVEKCCISLNGRSSRLVVQLHCKFGVRKTHNLSFQDCESLQAVFDPASCPHMLRAPARVLGEAVLPFSPALAEVTLGIGRGRRVILRSYHEEEADSTAKAMVTEMCLGEEDFQQLQAQEGVAITFCLKEFRGLLSFAESANLNLSIHFDAPGRPAIFTIKDSLLDGHFVLATLSDTDSHSQDLGSPERHQPVPQLQAHSTPHPDDFANDDIDSYMIAMETTIGNEGSRVLPSISLSPGPQPPKSPGPHSEEEDEAEPSTVPGTPPPKKFRSLFFGSILAPVRSPQGPSPVLAEDSEGEG
chain 2: MPLLTQQIQDEDDQYSLVASLDNVRNLSTILKAIHFREHATCFATKNGIKVTVENAKCVQANAFIQAGIFQEFKVQEESVTFRINLTVLLDCLSIFGSSPMPGTLTALRMCYQGYGYPLMLFLEEGGVVTVCKINTQEPEETLDFDFCSTNVINKIILQSEGLREAFSELDMTSEVLQITMSPDKPYFRLSTFGNAGSSHLDYPKDSDLMEAFHCNQTQVNRYKISLLKPSTKALVLSCKVSIRTDNRGFLSLQYMIRNEDGQICFVEYYCCPDEEVPESES
chain 3: MKFRAKIVDGACLNHFTRISNMIAKLAKTCTLRISPDKLNFILCDKLANGGVSMWCELEQENFFNEFQMEGVSAENNEIYLELTSENLSRALKTAQNARALKIKLTNKHFPCLTVSVELLSMSSSSRIVTHDIPIKVIPRKLWKDLQEPVVPDPDVSIYLPVLKTMKSVVEKMKNISNHLVIEANLDGELNLKIETELVCVTTHFKDLGNPPLASESTHEDRNVEHMAEVHIDIRKLLQFLAGQQVNPTKALCNIVNNKMVHFDLLHEDVSLQYFIPALS

percent reduction of RAD9 bound, against wild-type MUTYH: 50%
B2: purified recombinant RAD9:RAD1:HUS1 (9–1–1) complex (complex)
chain 1: B1 chain 1
chain 2: B1 chain 2
chain 3: B1 chain 3
